20 sequences from the supplement of paper PMC9170038 can be followed below.

In this data set the test system is MS2 coat protein. In words: apparent KD of MS2 coat protein; designed switch direction (-1 OFF switch, 1 ON switch): 1; higher = weaker reporter binding. Summed up: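 For each design, the apparent KD is the median over clusters of curves fitted to normalised cluster fluorescence. Clusters held RNA switches with common flanks, transcribed on Illumina chips by stalled E. coli RNA polymerase. These were titrated with SNAP-549-labelled MS2 coat protein, doubling from 0.7 or 1.5 nM to 3 µM, without input, with 200 uM small-molecule ligand, or with an oligonucleotide input.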

[1] abbreviates: input ligand: microRNA oligo, concentration not stated.

In the case of “UUAAGCAACGGGCAGGAUAUGUAUUAAAAUACAUGAGGAUCACCCAUGUGCAGGUGUAACACCUGACAGAAGGGCCAAUCGGUGC [Soteed - 8] (puzzle: Same State 2)”, the “apparent KD of MS2 coat protein” value runs as follows: (Eterna round: R95, input ligand: FMN 200 uM) 39.5 nM; (Eterna round: R95, input ligand: microRNA oligo, concentration not stated) 256 nM; (Eterna round: R95, input ligand: none) 409 nM.
Turning to “UUAAUAAUGAUAGGAUAUACAUGAGGAAUUCUCGUAGAAGGAUCAUGACAUGAGGAUCACCCAUGUAACGCUCAGAAGAGCGUA [Mat - Same State NG 1 - JL mod - D37] (Eterna round: R96, puzzle: Same State NG 1)”, the “apparent KD of MS2 coat protein” value by setting is: (input ligand: FMN 200 uM) 493 nM; under setting [1], 184 nM; (input ligand: none) 730 nM.
As for “UUAAUAAUGUUAGGAUAUACAUGAGGAAUCCUCGUAGAAGGAACAUGACAUGAGGAUCACCCAUGUAGCGCUCAGAAGAGCGCA [Mat - Same State NG 1 - JL mod - D47] (Eterna round: R96, puzzle: Same State NG 1)”, the “apparent KD of MS2 coat protein” value is, setting by setting: (input ligand: FMN 200 uM) 138 nM; under setting [1], 31.3 nM; (input ligand: none) 135 nM.
As to “UUAAUGAAGUAAGGAUAUACAUGAGGAUCACUCGUAGAAGGUACUAUACAUGAGGAUCACCCAUGUGCCGGUCCGUAGACUGGA [JL SSNG1 1.03] (Eterna round: R96, puzzle: Same State NG 1)”, the “apparent KD of MS2 coat protein” value by setting is: (input ligand: FMN 200 uM) 554 nM; under setting [1], 184 nM; (input ligand: none) 1090 nM.
Take “UUAAUGAUGAAAGGAUAUACAUGAGGAAUUCUCGUAGAAGGUUCAUGACAUGAGGAUCACCCAUGUAUCGCUCAGAAGAGCGUA [Mat - Same State NG 1 - JL mod - D29] (Eterna round: R96, puzzle: Same State NG 1)”: the “apparent KD of MS2 coat protein” value (input ligand: FMN 200 uM) came out at 47.4 nM, the “apparent KD of MS2 coat protein” value under setting [1] was 36 nM and the “apparent KD of MS2 coat protein” value (input ligand: none) is 85.4 nM.
“UUAAUGAUGAAAGGAUAUACAUGAGGAAUUCUCGUAGAAGGUUCAUGACAUGAGGAUCACCCAUGUAUCGCUCGAAAGAGCGUA [Mat - Same State NG 1 - JL mod - D30] (Eterna round: R96, puzzle: Same State NG 1)”: the “apparent KD of MS2 coat protein” value is, setting by setting: (input ligand: FMN 200 uM) 149 nM; under setting [1], 11.6 nM; (input ligand: none) 47.1 nM.
On to “UUAAUGAUGAUAGGAUAUACAUGAGGAAUUCUCGUAGAAGGAUCAUGACAUGAGGAUCACCCAUGUAUCGCUCAGAAGAGCGUA [Mat - Same State NG 1 - JL mod - D32] (Eterna round: R96, puzzle: Same State NG 1)”, for which the “apparent KD of MS2 coat protein” value reads like this: (input ligand: FMN 200 uM) 1340 nM; under setting [1], 368 nM; (input ligand: none) 528 nM.
For the sequence “UUAAUUAAUUAAUUAUACAUGAGGAUCACCCAUGUAAGUGAUCAGGAUAUCAGCUCGAUUAGAGCUGAGAAGGGAUCCAUGUAA [SSNG3/14-A2] (Eterna round: R96, puzzle: Same State NG 3)”, the “apparent KD of MS2 coat protein” value under setting [1] came out at 78 nM.
Same read-out and setting: the result for “UUAAUUAAUUAAUUAUACAUGAGGAUCACCCAUGUAAGUGAUCAGGAUAUCAGCUCGUGUAGAGCUGAGAAGGGAUACAUGUAA [SSNG3/12-A4] (Eterna round: R96, puzzle: Same State NG 3)” reads 147 nM.
For the sequence “UUAAUUAGUUGAGGAUAUUAUGUCGACUGAGACGACAUGAGGAUCACCCAUGUGAGAAGUGGUUUUAAGAAGGCAACAUUCAUA [JR_SSNG2_Sub088] (Eterna round: R96, puzzle: Same State NG 2)”, the “apparent KD of MS2 coat protein” value came to 55.9 nM (input ligand: FMN 200 uM), 83 nM under setting [1] and 141 nM (input ligand: none).
On the same counts, the results for “UUACAGCACGGGUAGGAUAUGUAGGGUGGUACAUGAGGAUCACCCAUGUAUCCACCCUUCUAACGGCAGAAGGGCCUGUCGCUGC [Riarve] (Eterna round: R96, puzzle: Same State 2)” are 28.3 nM, 11.2 nM and 27.5 nM.
For “UUACAGUGCGGGUAGGAUAUGUAGGGUGGUACAUGAGGAUCACCCAUGUAUCCACCCUUCUACCGGCAGAAGGGCCUGUCACUGC [Enlaeror] (Eterna round: R96, puzzle: Same State 2)”, the “apparent KD of MS2 coat protein” value (input ligand: FMN 200 uM) amounted to 17.2 nM, the “apparent KD of MS2 coat protein” value under setting [1] worked out at 9.64 nM and the “apparent KD of MS2 coat protein” value (input ligand: none) was 17 nM.
In the same order, the values of “UUACUCAUGUAAGGAUAUGCAGCCGUUUCGGCUGCAGAAGGUACUAUAAUACAUGAGGAUCACCCAUGUCUCUAUAAUUUAGUG [JL SSNG1 1.30] (Eterna round: R96, puzzle: Same State NG 1)” are 102 nM, 38.6 nM and 49.7 nM.
On the same counts, the results for “UUAUACUAGAGAGGAUAUGCAGAGGAUCACCCUGCAGAAGGCUCGUUAGAGAGGAUAUGCAGAGGAUCACCCUGCAGAAGGCUC [pwkr ssNG DX.23] (Eterna round: R96, puzzle: Same State NG 1)” are 17.2 nM, 8.62 nM and 15.2 nM.
In the same order, the values of “UUAUCUCAGACAUGAGGAUCACCCAUGUUUUUUUGUCUUAGACAGGAUAUAGUAGUAUCGAAAUACUAGAAGGGUCAUUUUAUU [JR_SSNG3_Sub023] (Eterna round: R96, puzzle: Same State NG 3)” are 18.4 nM, 23.5 nM and 28.9 nM.
As for “UUAUUAUACGUAGGAUAUUGAUGAUUGAUAGUACAAGAAGGACGAACAUGAGGAUCACCCAUGUAUAUUAAAAUGAGUUUGAAU [JR_SSNG1_Sub077] (Eterna round: R96, puzzle: Same State NG 1)”, the “apparent KD of MS2 coat protein” value is, setting by setting: (input ligand: FMN 200 uM) 72.8 nM; under setting [1], 52.8 nM; (input ligand: none) 55.1 nM.
In the same order, the values of “UUCACCUUUUAUAACAUGAGGAUCACCCAUGUAUAUUGUACGUAGGAUAUCGAUGUUAGUUUUUUCGAGAAGGACGAUGUAAGU [JR_SSND3_Sub049] (Eterna round: R96, puzzle: Same State NG 3)” are 29.6 nM, 40.7 nM and 53.9 nM.
Regarding “UUCACCUUUUAUAACAUGAGGAUCACCCAUGUAUAUUGUACGUAGGAUAUCGAUGUUUGUUUUUUCGAGAAGGACGAUGUAAGU [JR_SSND3_Sub050] (Eterna round: R96, puzzle: Same State NG 3)”, the “apparent KD of MS2 coat protein” value runs as follows: (input ligand: FMN 200 uM) 37 nM; under setting [1], 25.4 nM; (input ligand: none) 38.9 nM.
In the same order, the values of “UUCCCAGCGGGAGGAUAUGGUGCCUUGUUGGUGCUAGAAGGUCCAACAUGAGGAUCACCCAUGUGGGAGUGGUCGAAAGACCUC [SS NG10LRO09] (Eterna round: R96, puzzle: Same State NG 1)” are 224 nM, 186 nM and 318 nM.
In the same order, the values of “UUCCCAGCGGGAGGAUAUGGUGCCUUGUUGGUGCUAGAAGGUCCAACAUGAGGAUCACCCAUGUGGGAGUGGUUGAGAGACCUC [SS NG10LRO11] (Eterna round: R96, puzzle: Same State NG 1)” are 225 nM, 200 nM and 274 nM.
